Data as given in US20220177579A1 (published 2022).
Numbering of substitutions follows the chain as printed.

T1: human CD19 on CD19(+) NALM6 acute lymphoid leukemia cells (UniProt P15391 20-556)
T1 chain: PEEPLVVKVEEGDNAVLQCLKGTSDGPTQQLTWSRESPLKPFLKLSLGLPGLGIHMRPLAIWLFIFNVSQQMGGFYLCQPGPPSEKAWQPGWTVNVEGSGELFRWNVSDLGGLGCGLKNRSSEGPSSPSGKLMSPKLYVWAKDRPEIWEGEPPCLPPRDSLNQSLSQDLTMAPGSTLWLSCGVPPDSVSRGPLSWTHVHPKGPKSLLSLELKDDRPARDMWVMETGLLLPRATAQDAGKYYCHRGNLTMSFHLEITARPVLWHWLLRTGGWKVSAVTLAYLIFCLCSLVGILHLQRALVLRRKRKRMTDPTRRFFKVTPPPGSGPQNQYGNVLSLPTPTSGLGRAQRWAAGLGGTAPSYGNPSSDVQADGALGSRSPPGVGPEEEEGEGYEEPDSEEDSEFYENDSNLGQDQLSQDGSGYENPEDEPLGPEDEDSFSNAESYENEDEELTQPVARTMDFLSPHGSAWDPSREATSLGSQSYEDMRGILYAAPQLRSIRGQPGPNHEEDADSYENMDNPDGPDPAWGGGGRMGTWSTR

B1: L3+H8b (antibody, V domains shown)
VH: QVQLQESGPGLVKPSETLSVTCTVSGVSLPDYGVSWIRQPPGKGLEWIGVIWGSETTYYNPSLKSRLTISKDTSKNQFSLKLSSVTAADTAVYYCAKHYYYGGSYAMDYWGQGTSVTVSS
VL: DIQMTQSTSSLSASVGDRVTITCRASQDISKYLNWYQQKPGKAVKLLIYHTSRLHSGVPSRFSGSGSGTDYTFTISSLQPEDIATYYCQQGNTLPYTFGGGTKLEIT
B2: L3+H6b (antibody, V domains shown)
VH: B1 VH with V20L, I48L, L67V, K71V, T73N
VL: B1 VL
B3: L3+H3 (antibody, V domains shown)
VH: B1 VH with V20L, Y58N, K71V, L82M
VL: B1 VL
B4: L2+H3 (antibody, V domains shown)
VH: B1 VH with V20L, Y58N, K71V, L82M
VL: B1 VL with T8P, R24Q, F73L, Y87F
B5: L3+H5b (antibody, V domains shown)
VH: B1 VH with V20L, Y58N, L67V, N76S, F78V
VL: B1 VL

Target: T1, human CD19 on CD19(+) NALM6 acute …
Test: FACS

Row | EC50 [µg/mL] | Binder
1 | 0.19 | B1
2 | 0.13 | B2
3 | 0.64 | B3
4 | 0.41 | B4
5 | 0.28 | B5
